Results reported in patent publication US20250092140A1 (SHENGHE CHINA BIOPHARMACEUTICAL, published 2025).

T1: human-NKP30-His (human, UniProt O14931 19-138)
T1 construct: Bought protein; also called NKP30 protein; NKP30-his protein; not shown: His tag
T1 sequence (looked up): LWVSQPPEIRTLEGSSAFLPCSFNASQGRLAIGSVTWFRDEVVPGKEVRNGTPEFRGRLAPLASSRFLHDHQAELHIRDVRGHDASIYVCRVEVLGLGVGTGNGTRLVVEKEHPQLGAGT

B1: constructed antibody B23 (bispecific antibody, human IgG4 S228P, kappa)
heavy: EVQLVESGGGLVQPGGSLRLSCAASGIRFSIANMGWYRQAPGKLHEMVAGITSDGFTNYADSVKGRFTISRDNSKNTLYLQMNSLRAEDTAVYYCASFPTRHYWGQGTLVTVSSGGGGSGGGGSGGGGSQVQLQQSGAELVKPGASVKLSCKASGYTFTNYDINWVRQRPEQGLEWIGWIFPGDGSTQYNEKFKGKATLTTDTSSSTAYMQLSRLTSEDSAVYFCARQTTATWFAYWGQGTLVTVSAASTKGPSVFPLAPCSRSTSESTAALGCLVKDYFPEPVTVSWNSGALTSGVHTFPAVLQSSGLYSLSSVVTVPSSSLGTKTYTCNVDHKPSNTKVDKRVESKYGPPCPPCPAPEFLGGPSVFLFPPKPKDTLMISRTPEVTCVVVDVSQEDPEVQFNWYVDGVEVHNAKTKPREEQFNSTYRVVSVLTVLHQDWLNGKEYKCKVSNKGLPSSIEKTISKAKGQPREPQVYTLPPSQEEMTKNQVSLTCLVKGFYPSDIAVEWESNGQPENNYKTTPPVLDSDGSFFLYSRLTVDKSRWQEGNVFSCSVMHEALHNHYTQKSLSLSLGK
light: DIVMTQSPATLSVTPGDRVSLSCRASQSISDYLHWYQQKSHESPRLLIKYASQSISGIPSRFSGSGSGSDFTLSINSVEPEDVGVYYCQNGHSFPLTFGAGTKLELKRTVAAPSVFIFPPSDEQLKSGTASVVCLLNNFYPREAKVQWKVDNALQSGNSQESVTEQDSKDSTYSLSSTLTLSKADYEKHKVYACEVTHQGLSSPVTKSFNRGEC
notes: IgG4 subtype
B2: constructed antibody D28 (bispecific antibody, human IgG4 S228P, kappa)
heavy: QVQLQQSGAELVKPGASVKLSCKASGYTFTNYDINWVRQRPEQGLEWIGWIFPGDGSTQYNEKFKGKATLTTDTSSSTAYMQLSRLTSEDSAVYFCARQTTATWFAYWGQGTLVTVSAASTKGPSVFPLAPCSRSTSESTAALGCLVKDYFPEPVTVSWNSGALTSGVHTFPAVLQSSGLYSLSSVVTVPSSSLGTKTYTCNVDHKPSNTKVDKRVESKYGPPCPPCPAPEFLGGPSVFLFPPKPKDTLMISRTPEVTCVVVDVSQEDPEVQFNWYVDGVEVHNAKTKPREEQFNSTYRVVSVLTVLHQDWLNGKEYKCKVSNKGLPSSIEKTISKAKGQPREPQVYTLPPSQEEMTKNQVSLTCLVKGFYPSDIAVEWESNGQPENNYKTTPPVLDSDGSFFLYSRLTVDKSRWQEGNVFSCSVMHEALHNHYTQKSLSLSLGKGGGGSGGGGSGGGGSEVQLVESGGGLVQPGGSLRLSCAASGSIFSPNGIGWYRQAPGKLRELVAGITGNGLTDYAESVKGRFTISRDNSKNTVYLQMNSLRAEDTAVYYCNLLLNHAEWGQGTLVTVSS
light: B1 light
notes: IgG4 subtype
B3: constructed antibody A24 (bispecific antibody, human IgG1, kappa)
heavy: not shown
light: B1 light
notes: IgG1 subtype
B4: constructed antibody A25 (bispecific antibody, human IgG1, kappa)
heavy: not shown
light: B1 light
notes: IgG1 subtype

Molecular target: T1, human-NKP30-His
Experiment: ELISA, human-NKP30-His coated
Method: The human-NKP30-His (purchased from ACRO Biosystems) was diluted to 0.5 μg/mL using pH 7.4 PBS buffer and 100 μL per well was added to a 96-well ELISA plate and coated overnight at 4° C. The plates were closed with 1% BSA blocking solution for 1 hour and washed 3 times with PBST. […] The plate was washed 3 times with PBST and HRP-labelled goat anti-human IgG Fc was diluted 1:20000 with sample diluent, 100 μL for each well was added and incubated for 1 h at room temperature. After washing the plate 4 times with PBST, 100 μL of TMB substrate was added into each well and incubated for 10 min at room temperature, avoiding light. Then 100 μL of 1 M HCl was added into each well to terminate the colour development reaction. The absorbance value of each well in the 96-well plate was measured on a multifunctional enzyme standard at a wavelength of 450 nm and a reference wavelength of 570 nm, absorbance value (OD) per well=OD_{450 nm}−OD_{570 nm}. The concentration of the constructed antibody was logarithmically used as the horizontal coordinate, the measured absorbance value per well as the vertical coordinate, and the Sigmoidal dose-response (Variable Slope) method (Graph Pad Prism Software, Graph Pad Software, San Diego, California) was selected for non-linear regression to obtain the binding curve between the target antibody and NKP30 protein.

| binding result | Binder |
| --- | --- |
| binds | B1 |
| binds | B2 |
| binds | B3 |
| binds | B4 |
